The record followed here is patent US20060140889A1.

Test [1] concerns the target skin proteins. The test is described as follows: ELISA on coated skin proteins, blocking 0.5% BSA, iMab (OD280 0.357) diluted 100 x, anti-VSV-HRP; background without iMab 0.484. (An ELISA detects its analyte on a solid surface through an enzyme-linked reagent.)
For test [2], the target named is skin proteins. The test is described as follows: ELISA on coated skin proteins, blocking Seablock, iMab (OD280 0.357) diluted 100 x, anti-VSV-HRP; background without iMab 0.131.
For test [3], the target named is hair proteins. The test is described as follows: ELISA on coated hair proteins, blocking 0.5% BSA, iMab (OD280 1.71) diluted 100 x, anti-VSV-HRP; background without iMab 0.095.
The target of test [4] is hair proteins. The test is described as follows: ELISA on coated hair proteins, blocking 0.5% BSA, iMab (OD280 3.60) diluted 100 x, anti-VSV-HRP; background without iMab 0.095.
For test [5], the target named is skin proteins. The test is described as follows: ELISA on coated skin proteins, blocking Seablock, iMab (OD280 0.585) diluted 200 x, anti-VSV-HRP; background without iMab 0.131.
Test [6] concerns the target skin proteins. The test is described as follows: ELISA on coated skin proteins, blocking 0.5% BSA, iMab (OD280 0.585) diluted 200 x, anti-VSV-HRP; background without iMab 0.484.
The target of test [7] is skin proteins. The test is described as follows: ELISA on coated skin proteins, blocking 0.5% BSA, iMab (OD280 0.399) diluted 100 x, anti-VSV-HRP; background without iMab 0.187.
Test [8] deals with skin proteins. The test is described as follows: ELISA on coated skin proteins, blocking Seablock, iMab (OD280 0.399) diluted 100 x, anti-VSV-HRP; background without iMab 0.084.
For test [9], the target named is skin proteins. The test is described as follows: ELISA on coated skin proteins, blocking Seablock, iMab (OD280 0.327) diluted 100 x, anti-VSV-HRP; background without iMab 0.131.
For test [10], the target named is skin proteins. The test is described as follows: ELISA on coated skin proteins, blocking 0.5% BSA, iMab (OD280 0.327) diluted 100 x, anti-VSV-HRP; background without iMab 0.484.
Test [11] concerns the target hair proteins. The test is described as follows: ELISA on coated hair proteins, blocking 0.5% BSA, iMab (OD280 2.82) diluted 100 x, anti-VSV-HRP; background without iMab 0.095.
For test [12], the target named is skin proteins. The test is described as follows: ELISA on coated skin proteins, blocking 0.5% BSA, iMab (OD280 0.711) diluted 200 x, anti-VSV-HRP; background without iMab 0.484.
The target in test [13] is skin proteins. The test is described as follows: ELISA on coated skin proteins, blocking Seablock, iMab (OD280 0.711) diluted 200 x, anti-VSV-HRP; background without iMab 0.131.
The target of test [14] is hair proteins. The test is described as follows: ELISA on coated hair proteins, blocking 0.5% BSA, iMab (OD280 2.36) diluted 100 x, anti-VSV-HRP; background without iMab 0.095.
Test [15] addresses bovine serum albumin (bovine) (UniProt P02769). The test is described as follows: gel-shift, 2 mg/ml conjugate with 10 mg/ml BSA, 7.5% native PAA gel; Rf of the conjugate alone 0.66.
Test [16] has as its target hair proteins. The test is described as follows: ELISA on coated hair proteins, blocking 0.5% BSA, iMab (OD280 3.19) diluted 100 x, anti-VSV-HRP; background without iMab 0.095.
In test [17] the target is skin proteins. The test is described as follows: ELISA on coated skin proteins, blocking 0.5% BSA, iMab (OD280 0.828) diluted 250 x, anti-VSV-HRP; background without iMab 0.484.
The target in test [18] is skin proteins. The test is described as follows: ELISA on coated skin proteins, blocking Seablock, iMab (OD280 0.828) diluted 250 x, anti-VSV-HRP; background without iMab 0.131.
The target in test [19] is ELK (3% skim milk powder solution). The test is described as follows: ELISA, control well with ELK only, ~50 ng iMab per well, anti-VSV-HRP; urea purification.
The target of test [20] is hair proteins. The test is described as follows: ELISA on coated hair proteins, blocking 0.5% BSA, iMab (OD280 1.09) diluted 100 x, anti-VSV-HRP; background without iMab 0.095.
The target in test [21] is skin proteins. The test is described as follows: ELISA on coated skin proteins, blocking 0.5% BSA, iMab (OD280 0.323) diluted 100 x, anti-VSV-HRP; background without iMab 0.484.
Test [22] has as its target hair proteins. The test is described as follows: ELISA on coated hair proteins, blocking 0.5% BSA, iMab (OD280 4.22) diluted 100 x, anti-VSV-HRP; background without iMab 0.095.
For test [23], the target named is skin proteins. The test is described as follows: ELISA on coated skin proteins, blocking Seablock, iMab (OD280 0.323) diluted 100 x, anti-VSV-HRP; background without iMab 0.131.
The target in test [24] is chicken lysozyme (chicken), P00698. The test is described as follows: ELISA versus lysozyme, iMab dilution 1:10,000, before pH shock. The note with it: remark: other sources report otherwise.
Sequence of chicken lysozyme (chicken), P00698 (P00698 19-147 limits assumed): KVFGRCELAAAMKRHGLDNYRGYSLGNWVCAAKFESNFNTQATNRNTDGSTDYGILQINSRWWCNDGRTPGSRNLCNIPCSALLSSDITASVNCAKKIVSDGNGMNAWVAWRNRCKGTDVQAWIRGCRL
The target is the same in test [25]. The test is described as follows: ELISA, well coated with lysozyme (100 ug/ml) and blocked with ELK, ~50 ng iMab per well, anti-VSV-HRP; urea purification. The note with it: remark: other sources report otherwise.
For test [26] the target is unchanged. The test is described as follows: ELISA versus lysozyme, iMab dilution 1:100, after precipitation with potassium acetate pH 4.8 and redissolving in PBS pH 7.5. The note with it: remark: other sources report otherwise.
Test [27] shares this target. The test is described as follows: ELISA, well coated with lysozyme (100 ug/ml) and blocked with ELK, ~50 ng iMab per well, anti-VSV-HRP; purification by heat (60 C). The note with it: remark: other sources report otherwise.
Test [28] has the same target. The test is described as follows: ELISA versus lysozyme, iMab dilution 1:1000, after precipitation with potassium acetate pH 4.8 and redissolving in PBS pH 7.5. The note with it: remark: other sources report otherwise.
Test [29] has the same target. The test is described as follows: ELISA versus lysozyme, iMab dilution 1:10, before pH shock. The note with it: remark: other sources report otherwise.
Test [30] has the same target. The test is described as follows: ELISA versus lysozyme, iMab dilution 1:10,000, after precipitation with potassium acetate pH 4.8 and redissolving in PBS pH 7.5. The note with it: remark: other sources report otherwise.
The target of test [31] is ELK (3% skim milk powder solution). The test is described as follows: ELISA, control well with ELK only, ~50 ng iMab per well, anti-VSV-HRP; purification by heat (60 C).
Test [32] addresses chicken lysozyme (chicken), P00698. The test is described as follows: ELISA versus lysozyme, iMab dilution 1:1000, before pH shock. The note with it: remark: other sources report otherwise.
For test [33] the target is unchanged. The test is described as follows: ELISA versus lysozyme, iMab dilution 1:100, before pH shock. The note with it: remark: other sources report otherwise.
Test [34] shares this target. The test is described as follows: ELISA versus lysozyme, iMab dilution 1:10, after precipitation with potassium acetate pH 4.8 and redissolving in PBS pH 7.5. The note with it: remark: other sources report otherwise.

Sequence of bovine serum albumin (bovine) (P02769 25-607 limits assumed): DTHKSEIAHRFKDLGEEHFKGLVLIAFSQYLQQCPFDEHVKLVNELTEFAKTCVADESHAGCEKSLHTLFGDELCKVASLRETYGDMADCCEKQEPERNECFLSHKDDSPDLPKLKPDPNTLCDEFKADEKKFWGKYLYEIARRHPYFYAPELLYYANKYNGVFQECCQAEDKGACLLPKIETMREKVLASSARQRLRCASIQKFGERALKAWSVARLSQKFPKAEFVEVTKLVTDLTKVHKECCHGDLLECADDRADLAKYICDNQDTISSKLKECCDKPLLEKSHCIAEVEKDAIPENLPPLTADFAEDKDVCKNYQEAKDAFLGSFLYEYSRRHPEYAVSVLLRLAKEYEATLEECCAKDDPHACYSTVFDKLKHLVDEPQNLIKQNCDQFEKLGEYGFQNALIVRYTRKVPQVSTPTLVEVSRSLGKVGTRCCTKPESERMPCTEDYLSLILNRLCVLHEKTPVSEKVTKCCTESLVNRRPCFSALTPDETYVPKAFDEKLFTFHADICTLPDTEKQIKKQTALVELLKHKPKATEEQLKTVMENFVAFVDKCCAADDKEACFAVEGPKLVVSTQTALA

B1: iMab143-xx-0034 (designed binder)
chain: MIKVYTDRENYGAVGSQVTLHCSASGYTIGPISFTWRYQPEGDRDAISIFHYNMGDGSIVIHNLDYSDNGSFTCAAYRIRSGGYYCFLTYLMDYGNSSQVTLYVFE
In the case of B1, the values for the OD450 in Elisa with skin proteins [1], in the test with skin proteins [2] and with hair proteins [3] were 2.23 OD450, 0.699 OD450 and 0.736 OD450, respectively.

B2: iMab143-xx-0029 (designed binder)
chain: MIKVYTDRENYGAVGSQVTLHCSASGYTIGPISFTWRYQPEGDRDAISIFHYNMGDGSIVIHNLDYSDNGSFTCAARFVDALYEPKSCTSRNYAYGNSSQVTLYVFE
B2: the OD450 in Elisa stood at 0.203 OD450 in the test with hair proteins [4], 0.212 OD450 with skin proteins [5] and 1.88 OD450 in the test with skin proteins [6].

B3: iMab142-xx-0032 (designed binder)
chain: MNVKLVEKGGNFVENDDDLKLTCRAEGYTIGPYSMGWFRQAPNDDSTNVSCINMGGGITYYGDSVKERFDIRRDNASNTVTLSMDDLQPEDSAEYNCAATLAPFSIATMYGGLLDTAFDSRGQGTDVTVSS
As for B3, the figures for the OD450 in Elisa with skin proteins [7] and with skin proteins [8] were 0.306 OD450 and 0.088 OD450, respectively.

B4: iMab143-xx-0031 (designed binder)
chain: MIKVYTDRENYGAVGSQVTLHCSASGYTIGPISFTWRYQPEGDRDAISIFHYNMGDGSIVIHNLDYSDNGSFTCAATTPFIDYDPNDICPSWYEYDYGNSSQVTLYVFE
Consider B4, for which the OD450 in Elisa turned out to be 2.88 OD450 in the test with skin proteins [9], 2.62 OD450 in the test with skin proteins [10] and 1.05 OD450 with hair proteins [11].

B5: iMab143-xx-0035 (designed binder)
chain: MIKVYTDRENYGAVGSQVTLHCSASGYTIGPISFTWRYQPEGDRDAISIFHYNMGDGSIVIHNLDYSDNGSFTCAAGADCSDYGIMYGMDYGNSSQVTLYVFE
Consider B5, for which the OD450 in Elisa with skin proteins [12] stood at 0.824 OD450; in the test with skin proteins [13], 1.79 OD450.

B6: iMab142-xx-0039 (designed binder)
chain: NVKLVEKGGNFVENDDDLKLTCRAEGYTIGPYSMGWFRQAPNDDSTNVSCINMGGGITYYGDSVKERFDIRRDNASNTVTLSMDDLQPEDSAEYNCAADYGRCSWLIRAYNYRGQGTDVTVSS
Consider B6, for which the OD450 in Elisa with hair proteins [14] is 1.32 OD450.

B7: TRITC labeled iMab142-xx-0002 (designed binder, not shown: small tags and cut ends)
chain: MNVKLVEKGGNFVENDDDLKLTCRAEGYTIGPYSMGWFRQAPNDDSTNVSCINMGGGITYYGDSVKERFDIRRDNASNTVTLSMDDLQPEDSAVYNCAADWWDGFTYGSTWYNPSSYDYRGQGTDVTVSS
modifications: TRITC covalently on primary amines, meaning the N-terminus and Lys side chains. Positions and number are not stated; labelled Lys is written K.
With B7, the retardation factor (Rf) in test [15] came out at 0.66.

B8: iMab143-xx-0033 (designed binder)
chain: MIKVYTDRENYGAVGSQVTLHCSASGYTIGPISFTWRYQPEGDRDAISIFHYNMGDGSIVIHNLDYSDNGSFTCAADLHGLGLRRISTYEYGNSSQVTLYVFE
As to B8, the OD450 in Elisa was determined as 0.442 OD450 with hair proteins [16], 1.66 OD450 with skin proteins [17] and 0.29 OD450 with skin proteins [18].

B9: iMab122 (designed binder, not shown: small tags and cut ends)
chain: NVKLVEKGGNFVENDDDLKLTCRASGRTFSSRTMGWFRQAPNDDSTNVATIRWNGGSTYYTNYGDSVKERFDIRVDQASNTVTLSMDDLQPEDSAEYNCAGTDIGDGWSGRYDYRGQGTDVTVSS
As to B9, the Absorbtion (450 nm) (absorbance at 450 nm) in [19] was 0.051.

B10: iMab142-xx-0038 (designed binder)
chain: NVKLVEKGGNFVENDDDLKLTCRAEGYTIGPYSMGWFRQAPNDDSTNVSCINMGGGITYYGDSVKERFDIRRDNASNTVTLSMDDLQPEDSAEYNCATTLAPFGIATMYGPLNPAAFESRGQGTDVTVSS
In the case of B10, the OD450 in Elisa in the test with hair proteins [20] came out at 2.35 OD450.

B11: iMab143-xx-0030 (designed binder)
chain: MIKVYTDRENYGAVGSQVTLHCSASGYTIGPISFTWRYQPEGDRDAISIFHYNMGDGSIVIHNLDYSDNGSFTCAAVFAVVTVATKPDPRFYDYGNSSQVTLYVFEA
Consider B11, for which the OD450 in Elisa with skin proteins [21] worked out at 2.02 OD450; with hair proteins [22] it was 0.262 OD450; in the test with skin proteins [23] it was 0.56 OD450.

B12: iMab111 (designed binder)
chain: NVKLVCKGGNFVENDDDLKLTCRAEGYTIGPYCMGWFRQAPNDDSTNVATINMGGGITYYGDSVKERFDIRRDNASNTVTLSMDDLQPEDSAEYNCAGDSTIYASYYECGHGLSTGGYGYDSHYRCQGTDVTVSS
As to B12, in [19], the Absorbtion (450 nm) (absorbance at 450 nm) came out at 0.043.

B13: iMab116 (designed binder, not shown: small tags and cut ends)
chain: NVKLVEKGGNFVENDDDLKLTCRAEGYTIGPYCMGWFRQAPNDDSTNVATINMGGGITYYGDSVKERFDIRRDNASNTVTLSMDDLQPEDSAEYNGAGDSTIYGSYYECGHGLSTGGYGYDSHYRGQGTDVTVSS
As to B13, the Absorbtion (450 nm) (absorbance at 450 nm) in [19] stood at 0.042.

B14: iMab100 (designed binder, not shown: small tags and cut ends)
chain: NVKLVEKGGNFVENDDDLKLTCRAEGYTIGPYCMGWFRQAPNDDSTNVATINMGGGITYYGDSVKERFDIRRDNASNTVTLSMDDLQPEDSAEYNCAGDSTIYASYYECGHGLSTGGYGYDSHYRGQGTDVTVSS
Consider B14, for which the Signal on Elisa was found to be 0.059 in test [24]; 0.263 in test [26]; 0.169 in [28]; 0.36 in test [29]; 0.059 in test [30]; 0.128 in test [32]. Further, the values for the Signal on Elisa in test [33] and in [34] were 0.228 and 0.39, respectively. Further, the Absorbtion (450 nm) (absorbance at 450 nm) in test [25] was found to be 0.494; in [27] it was 0.369; in test [31] it was 0.041; in test [19], 0.04.
